In patent US20250092426, “CAS ENDONUCLEASES AND RELATED METHODS” (Flagship Pioneering Innovations VII, LLC, published 2025):

Target: T1, CasEnd-26 (synthetic construct)
T1 chain: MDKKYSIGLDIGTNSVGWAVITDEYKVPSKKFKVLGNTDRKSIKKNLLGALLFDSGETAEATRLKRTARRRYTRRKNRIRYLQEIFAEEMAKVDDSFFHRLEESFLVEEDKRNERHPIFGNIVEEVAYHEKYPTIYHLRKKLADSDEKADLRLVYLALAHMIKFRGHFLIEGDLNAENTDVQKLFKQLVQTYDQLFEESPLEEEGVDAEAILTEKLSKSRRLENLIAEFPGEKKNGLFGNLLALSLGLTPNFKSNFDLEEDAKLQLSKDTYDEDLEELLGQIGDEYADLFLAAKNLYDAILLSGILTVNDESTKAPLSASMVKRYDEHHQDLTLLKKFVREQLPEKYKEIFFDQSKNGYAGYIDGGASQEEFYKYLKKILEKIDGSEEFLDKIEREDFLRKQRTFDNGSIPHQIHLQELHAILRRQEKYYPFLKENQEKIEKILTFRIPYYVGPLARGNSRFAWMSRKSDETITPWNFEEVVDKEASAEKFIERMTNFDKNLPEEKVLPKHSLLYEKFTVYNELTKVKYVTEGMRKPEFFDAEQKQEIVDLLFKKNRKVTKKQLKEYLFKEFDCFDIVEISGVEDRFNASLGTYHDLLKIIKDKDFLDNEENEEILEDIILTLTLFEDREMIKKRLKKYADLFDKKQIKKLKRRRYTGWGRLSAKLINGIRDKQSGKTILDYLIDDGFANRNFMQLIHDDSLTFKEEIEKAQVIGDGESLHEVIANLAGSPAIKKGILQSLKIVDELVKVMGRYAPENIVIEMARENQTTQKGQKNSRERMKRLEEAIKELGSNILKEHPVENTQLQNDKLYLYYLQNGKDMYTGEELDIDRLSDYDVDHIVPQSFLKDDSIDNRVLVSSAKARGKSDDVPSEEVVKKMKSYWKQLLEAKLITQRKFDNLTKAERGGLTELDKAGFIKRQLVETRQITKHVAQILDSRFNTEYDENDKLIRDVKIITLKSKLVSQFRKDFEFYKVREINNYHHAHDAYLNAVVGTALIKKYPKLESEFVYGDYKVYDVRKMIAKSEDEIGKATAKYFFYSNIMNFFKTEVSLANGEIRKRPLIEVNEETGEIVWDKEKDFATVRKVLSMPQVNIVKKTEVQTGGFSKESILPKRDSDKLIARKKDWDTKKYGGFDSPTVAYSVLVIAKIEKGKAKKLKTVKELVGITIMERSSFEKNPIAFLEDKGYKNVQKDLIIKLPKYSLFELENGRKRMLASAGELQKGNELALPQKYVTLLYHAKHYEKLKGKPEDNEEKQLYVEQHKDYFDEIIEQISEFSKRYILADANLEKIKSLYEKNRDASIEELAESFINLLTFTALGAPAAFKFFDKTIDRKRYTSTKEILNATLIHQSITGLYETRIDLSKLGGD
Test: cell_activity; +++; HEK293T; PAM not stated
In short: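 Editing activity was scored as the fraction of GFP+ cells on day 4 by flow cytometry. BFP-expressing HEK293T cells (250,000) received by nucleofection 200 ng plasmid for the RT-Cas fusion protein and 200 ng template RNA plasmid designed to convert BFP to GFP.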

B1: BFP-to-GFP template RNA ; BFP reporter protospacer (ssRNA ; dsDNA)
RNA: GCCGAAGCACUGCACGCCGUGUUUUAGAGCUAGAAAUAGCAAGUUAAAAUAAGGCUAGUCCGUUAUCAACUUGAAAAAGUGGCACCGAGUCGGUGCACCCUGACGUACGGCGUGCAGUGCUU
DNA 1: GCCGAAGCACTGCACGCCGT
DNA 2: ACGGCGTGCAGTGCTTCGGC
- activity: ≥ 100 % of reference
